The data set concerns murine SOD1 mRNA. Description: siRNA biodistribution and SOD1 mRNA by in situ hybridization (miRNAScope / RNAScope). In kind it is in vivo, C57Bl/6 mice. To be noted: single ICV dose 100 µg, seven days. As for the experimental part:
For ISH bioanalysis, 20 µm sagittal cryosections of left brain hemispheres or coronal sections of spinal cords were prepared using a cryostat at -20°C (Leica), collected onto superfrost plus slides and stored at - 80°C until processing. For RNAScope® or miRNAScope® assays, slides containing cyosections were immediately transferred and fixed in 10% Neutral buffered formalin (NBF) for 1h30 at RT. Fluorescent RNAscope® assay for mRNAs detection or chromogenic miRNAscope® assay for siRNA detection were performed according to the manufacter's protocols (Advanced Cell Diagnostics, ACD). […] This distribution correlates with a broad and potent SOD1 mRNA knock-down, as assessed using RNAScope® (Figure 29B and 29E, right panels). […]
For ISH bioanalysis, 20 µm sagittal cryosections of left brain hemispheres or coronal sections of spinal cords were prepared using a cryostat at -20°C (Leica), collected onto superfrost plus slides and stored at - 80°C until processing. […] This distribution correlates with a broad TfR-dependent and potent SOD1 mRNA knock-down, as assessed using RNAScope® (Figure 31C and 31I, right panels).
An example of cleavable linker was evaluated and compared to the C5-hFc-siSOD1m-5'VP for its biodistribution in CNS tissues following systemic administration. […]

B1: C5-siSOD1m-5'VP: TfR-binding VHH-siRNA conjugate wherein VHH is C5 (conjugate)
VHH: EVQLVESGGGVVQPGGSLKLSCVASGTDFSINFIRWYRQAPGKQREFVAGFTATGNTNYADSMKGRFTISRDNTKNAVYLQIDSLKPEDTAVYYCYMLDKWGQGTQVTVSSAAAEQKLISEEDLNGAAHHHHHHGS
On to B1, for which the “biodistribution of the siSOD1m AS strand in brain and spinal cord” value is reported as “broad biodistribution”.
